# Test results as given in patent US9200045B2, “Small molecule-dependent inteins and uses thereof” (President and Fellows of Harvard College, priority 2011, dated 2015).
# Changes are numbered by the printed parent chain.
# B1: 3-2: previously evolved parental 4-HT-dependent intein, derived from the 2-4 intein (protein)
# chain: CLAEGTRIFDPVTGTTHRIEDVVDGRKPIHVVAVAKDGTLLARPVVSWFDQGTRDVIGLRIAGGAIVWATPDHKVLTEYGWRAAGELRKGDRVAGPGGSGNSLALSLTADQMVSALLDAEPPILYSEYDPTSPFSEASMMGLLTNLADRELVHMINWAKRVPGFVDLTLHDQAHLLECAWLEILMIGLVWRSMEHPGKLLFAPNLLLDRNQGKCVEGMVEIFDMLLATSSRFRMMNLQGEEFVCLKSIILLNSGVYTFLSSTLKSLEEKDHIHRALDKITDTLIHLMAKAGLTLQQQHQRLAQLLLILSHIRHMSNKGMEHLYSMKYTNVVPLYDLLLEMLDAHRLHAGGSGASRVQAFADALDDKFLHDMLAEELRYSVIREVLPTRRARTFDLEVEELHTLVAEGVVVHNC
# B2: 37R3-2: evolved 4-HT-dependent intein, clone from 37° C. evolution, Round 3 (protein)
# chain: B1 chain with V34A, I66T, C178R, T328K
# Columns and labels:
# [1] = tested on: GFP; details: yeast
# [2] = tested on: GFP; details: HEK293, 37° C.
# [3] = tested on: Gli1; test: 4-HT-dependent intein splicing in the Gli1 context in HEK293 cells; assay type: cell-based, human; details: 1 μM 4-HT
# Text: (§1) p3XFlag-CMV-14 (Sigma) vectors with Gli1-intein (2-4 and 3-2), and Gli3T-intein (2-4 and 3-2) sequences were previously described (Yuen et al., 2006). p3XFlag-CMV-14 mCherry-intein (2-4 and 3-2) vectors were constructed by cloning the 2-4 and 3-2 intein sequences into the pRSET-B mCherry vector provided by Professor Roger Tsien (University of California at San Diego). The mCherry-intein 2-4 and mCherry-intein 3-2 sequences were then amplified using oligonucleotides introducing a 5′ EcoRI site and a 3′ BamHI site and ligated into EcoRI- and BamHI-digested p3XFlag-CMV-14 vector. 30R3-1 intein sequence and 37R3-2 intein sequence were amplified using the following oligonucleotides compatible with mCherry, Gli1, or Gli3 contexts.
# [4] = tested on: Gli3T; test: 4-HT-dependent intein splicing in the Gli3T context in HEK293 cells; assay type: cell-based, human; details: 1 μM 4-HT
# Text: as §1
# [5] = tested on: GFP, mCherry, Gli1, and Gli3T; test: Intein splicing across all four proteins tested in mammalian cells; details: no 4-HT
# Protocol: Western blots were performed using Nu-PAGE 12% Bis-Tris gels (Invitrogen) in 3-(Nmorpholino) propanesulfonic acid (MOPS)-sodium dodecyl sulfate (SDS) buffer (Invitrogen). SDSpolyacrylamide gel electrophoresis (PAGE) and Western blotting were performed using standard protocols. Gels were transferred onto polyvinylidene fluoride (PDVF) membranes (Millipore). Western blots were processed using a mouse anti-FLAG antibody (Sigma) as the primary antibody and a secondary Alexa Fluor 800-conjugated goat anti-mouse antibody (Li-cor Biosciences), then visualized and quantitated using an Odyssey imager (Li-cor Biosciences). […]
# The inteins were inserted into mCherry, a red fluorescent protein, in place of Thr 113, the residue in mCherry that corresponds to the Cys residue used for intein insertion in GFP. As in the case of GFP, this placement positions the intein near the mid-point of a β-strand and abolishes mCherry fluorescence until splicing takes place (vide infra). […]
# The splicing characteristics of the newly evolved inteins was investigated in the contexts of two additional mammalian proteins, Gli1 and Gli3T. […] The resulting constructs were introduced into HEK293 cells and splicing was evaluated by Western blot as described above.
# [6] = tested on: mCherry; test: 4-HT-dependent intein splicing in the mCherry context in HEK293 cells; assay type: cell-based, human; details: for spliced mCherry protein: HEK293, 37° C., 1 μM 4-HT
# Text: as §1
# HEK293 cells were grown in 10 cm dishes or 6-well plates and transfected with relevant mammalian vectors using Effectene. After growth in the absence of 4-HT or in the presence of 1 μM 4-HT for 24 hours, cells were trypsinized and resuspended in 500 μL of phosphate buffered saline with 1% FBS and 75 U/mL DNase (New England Biolabs). Cell fluorescence analysis was carried out on a BD LSRII cell analyzer.
# [7] = HEK293, at 24 hours or 12 hours
Molecule,"splicing in the absence of 4-HT (background splicing) ([1]; 30° C., after 24 hours, no 4-HT)","spliced protein ([1]; 37° C., 1 hour after 4-HT treatment)",fraction of the total spliced GFP after 24 hours that was present after 12 hours ([2]; 1 μM 4-HT),"spliced GFP ([2]; after 24 hours, 1 μM 4-HT)","Gli1 protein spliced ([3]; HEK293, after 12 hours)","Gli1 protein spliced ([3]; HEK293, after 24 hours)","spliced Gli3T protein ([4]; HEK293, after 12 hours)","spliced Gli3T protein ([4]; HEK293, after 24 hours)",background splicing in the absence of 4-HT [5],spliced mCherry protein ([6]; after 12 hours),spliced mCherry protein ([6]; after 24 hours),"fold higher percentage of spliced mCherry than that of 3-2 intein [6, 7]","fold higher percentage of spliced mCherry than that of the 2-4 intein [6, 7]","background splicing in the absence of 4-HT ([2]; GFP context, no 4-HT)","fold higher GFP splicing efficiency than the original 2-4 intein ([2]; after 24 hours, 1 μM 4-HT)","fold higher GFP splicing efficiency than the original 3-2 intein ([2]; after 24 hours, 1 μM 4-HT)"
B1,15%,did not generate significant amounts of spliced protein,45%,33%,22%,32%,10%,18%,,,,,,,,
B2,,,,73%,,,,,very low and often was not detectable,43%,72%,~3 fold,~5 fold,not observed,3.8 fold,2.2 fold
